Assay results taken from US20160168251A1 (MorphoSys, published 2016).
Changes are numbered by the printed parent chain. Like-named read-outs stand apart in the source and are kept apart here.

T1: human NPRB on HEK293 cells, without added ligand (human, UniProt P20594 23-1047)
T1 construct: whole, on cells; also called HEK NPRB cells; natriuretic peptide receptor B
T1 sequence (looked up): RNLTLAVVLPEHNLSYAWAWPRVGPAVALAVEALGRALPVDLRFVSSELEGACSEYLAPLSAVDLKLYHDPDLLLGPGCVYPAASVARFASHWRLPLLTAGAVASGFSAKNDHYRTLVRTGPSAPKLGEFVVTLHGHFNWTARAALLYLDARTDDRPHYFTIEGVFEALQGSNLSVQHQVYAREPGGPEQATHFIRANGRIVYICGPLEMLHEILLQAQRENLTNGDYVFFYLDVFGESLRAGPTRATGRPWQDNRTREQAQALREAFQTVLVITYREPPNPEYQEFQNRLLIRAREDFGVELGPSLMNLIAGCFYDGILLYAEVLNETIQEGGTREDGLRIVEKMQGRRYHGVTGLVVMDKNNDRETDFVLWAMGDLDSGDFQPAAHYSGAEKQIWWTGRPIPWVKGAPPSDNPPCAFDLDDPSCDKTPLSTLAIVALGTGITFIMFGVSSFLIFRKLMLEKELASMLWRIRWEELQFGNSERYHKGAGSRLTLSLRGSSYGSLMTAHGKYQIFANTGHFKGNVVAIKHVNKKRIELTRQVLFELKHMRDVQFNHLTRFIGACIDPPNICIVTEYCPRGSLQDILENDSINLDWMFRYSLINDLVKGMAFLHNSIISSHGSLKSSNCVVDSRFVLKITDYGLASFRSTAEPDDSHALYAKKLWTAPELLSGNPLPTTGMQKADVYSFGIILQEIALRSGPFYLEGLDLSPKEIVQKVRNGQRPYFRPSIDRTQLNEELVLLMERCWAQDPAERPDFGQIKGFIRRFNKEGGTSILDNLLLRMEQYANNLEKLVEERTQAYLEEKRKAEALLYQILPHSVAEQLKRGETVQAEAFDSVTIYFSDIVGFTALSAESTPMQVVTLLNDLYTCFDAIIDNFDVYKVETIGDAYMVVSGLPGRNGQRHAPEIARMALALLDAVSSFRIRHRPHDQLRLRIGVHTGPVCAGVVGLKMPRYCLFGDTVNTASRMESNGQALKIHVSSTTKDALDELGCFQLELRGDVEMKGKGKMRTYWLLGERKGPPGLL

T2: human NPRA on HEK293 cells, without added ligand (human, UniProt P16066 33-1061)
T2 construct: a signal peptide is not delimited; also called HEK NPRA cells; HEK hNPRA cells
T2 sequence: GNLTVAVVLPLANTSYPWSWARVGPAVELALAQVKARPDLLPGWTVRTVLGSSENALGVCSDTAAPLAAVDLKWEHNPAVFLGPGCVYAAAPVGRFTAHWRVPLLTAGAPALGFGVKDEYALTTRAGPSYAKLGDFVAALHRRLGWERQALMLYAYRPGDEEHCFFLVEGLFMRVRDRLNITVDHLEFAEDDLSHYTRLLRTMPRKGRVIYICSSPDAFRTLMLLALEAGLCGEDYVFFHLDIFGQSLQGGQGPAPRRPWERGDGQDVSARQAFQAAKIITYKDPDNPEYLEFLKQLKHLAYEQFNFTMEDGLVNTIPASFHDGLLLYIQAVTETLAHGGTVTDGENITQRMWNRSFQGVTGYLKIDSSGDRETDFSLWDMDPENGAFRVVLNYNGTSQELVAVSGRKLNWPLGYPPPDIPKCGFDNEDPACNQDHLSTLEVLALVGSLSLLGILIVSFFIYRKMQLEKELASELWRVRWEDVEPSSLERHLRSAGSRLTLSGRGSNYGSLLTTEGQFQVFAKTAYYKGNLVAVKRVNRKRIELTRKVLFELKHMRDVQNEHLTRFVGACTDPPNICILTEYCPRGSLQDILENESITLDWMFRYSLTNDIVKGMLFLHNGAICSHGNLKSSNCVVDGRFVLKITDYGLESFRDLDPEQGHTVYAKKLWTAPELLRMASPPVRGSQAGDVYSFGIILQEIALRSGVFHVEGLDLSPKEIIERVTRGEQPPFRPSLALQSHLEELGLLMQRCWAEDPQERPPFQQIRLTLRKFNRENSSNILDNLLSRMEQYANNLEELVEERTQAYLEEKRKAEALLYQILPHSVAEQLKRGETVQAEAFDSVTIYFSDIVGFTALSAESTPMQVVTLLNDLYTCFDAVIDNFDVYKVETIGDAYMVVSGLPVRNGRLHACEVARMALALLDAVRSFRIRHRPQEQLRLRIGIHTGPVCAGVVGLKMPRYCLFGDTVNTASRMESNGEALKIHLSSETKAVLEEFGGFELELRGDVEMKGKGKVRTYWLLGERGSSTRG

T3: human NPRA on HEK293 cells bound to ANP (human, UniProt P01160 124-151)
T3 construct: mature; Receptor-ligand complex on cells; also called HEK NPRA cells loaded with ANP; ANP-NPRA complex
T3 sequence: T2 sequence
T3 sequence (peptide): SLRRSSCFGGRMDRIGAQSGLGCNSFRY

B1: 5502 IgG4_Pro (antibody, V domains shown)
VH: QVQLQQSGPGLVKPSQTLSLTCAISGDSVSSRSASWSWIRQSPGRGLEWLGRIYYRSKWYNDYAVSVKSRITINPDTSKNQFSLQLNSVTPEDTAVYYCARMDVPSFRYFDVWGQGTLVTVSS
VL: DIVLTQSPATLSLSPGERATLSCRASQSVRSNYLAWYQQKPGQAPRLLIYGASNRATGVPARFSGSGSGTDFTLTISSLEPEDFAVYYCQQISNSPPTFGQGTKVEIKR
notes: Human IgG4_Pro
B2: 5591 IgG4_Pro (antibody, V domains shown)
VH: B1 VH with I53T, K58H, N61Y, D62E, V65Q
VL: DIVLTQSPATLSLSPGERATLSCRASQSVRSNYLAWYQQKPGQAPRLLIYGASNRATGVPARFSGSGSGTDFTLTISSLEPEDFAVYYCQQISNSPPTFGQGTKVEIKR
B3: 5592 IgG4_Pro (antibody, V domains shown)
VH: B1 VH with I53T, K58H, N61Y, D62E, V65Q
VL: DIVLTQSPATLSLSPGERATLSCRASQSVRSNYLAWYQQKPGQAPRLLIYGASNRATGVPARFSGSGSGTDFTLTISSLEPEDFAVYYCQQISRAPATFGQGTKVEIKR

How the values were obtained:
[1] = target: T1, human NPRB on HEK293 cells, without …; test: FACS, HEK NPRB cells without ligand
Protocol: (§1) HEK NPRA cells are detached with Accutase (PAA Laboratories GmbH, Cat. No. L11-007, Austria), harvested by centrifugation (900 rpm, 4 minutes) and resuspended in FACS buffer (PBS/3% FCS/0.02% NaN3) to a final concentration of 10⁶ cells/ml. 100 μl of the cell suspension is transferred to each well of a 96 round bottom plate (TC Microwell 96U, Nunc). […] Cells are washed in 150 μl of FACS buffer, pelleted and resuspended in 50 μl of the solution containing the primary antibody comprising a BEL extract of Fabs, a diluted BEL extract or purified antibody diluted in FACS buffer and incubated on ice for 30 min. Cells are washed again in FACS buffer and resuspended in 50 μl of FACS buffer containing the secondary antibody (R-Phycoerythrin-conjugated Affipure F(ab′)₂ Fragment Goat Anti-Human IgG, Dianova) and incubated on ice for 45 min. Cells are washed twice with FACS buffer and resuspended in 200 μl of FACS buffer for analysis in the FACS Array (BD Biosciences).

[2] = target: T2, human NPRA on HEK293 cells, without …; test: FACS, HEK NPRA cells without ligand
[3] = target: T3, human NPRA on HEK293 cells bound to ANP; test: KinExA whole cell binding (Kd,app), HEK cells with human NPRA, ANP bound, 75 and 200 pM IgG
Protocol: Initial species cross-reactivity studies are performed using HEK cell lines overexpressing rat, canine and rhesus monkey NPRA. […] These apparent Kd values are obtained by globally fitting the data for two antibody concentrations.

[4] = target: T1, human NPRB on HEK293 cells, without …; test: FACS, HEK NPRB cells without ligand; remark: listed apart in the source
Protocol: as §1

[5] = target: T4, human NPRB on HEK293 cells in the presence of CNP (human, UniProt P20594 23-1047; P23582 105-126); test: FACS, HEK NPRB cells with 100 nM CNP
T4 construct: whole, on cells;mature; also called HEK NPRB cells + 100 nM CNP
Protocol: as §1

[6] = target: canine NPRA on HEK cells bound to ANP (canine, UniProt A0A8I3MHU3 32-1060); test: KinExA whole cell binding (Kd,app), HEK cells with canine NPRA, ANP bound
canine NPRA on HEK cells bound to ANP, sequence (A0A8I3MHU3 entry or part of it): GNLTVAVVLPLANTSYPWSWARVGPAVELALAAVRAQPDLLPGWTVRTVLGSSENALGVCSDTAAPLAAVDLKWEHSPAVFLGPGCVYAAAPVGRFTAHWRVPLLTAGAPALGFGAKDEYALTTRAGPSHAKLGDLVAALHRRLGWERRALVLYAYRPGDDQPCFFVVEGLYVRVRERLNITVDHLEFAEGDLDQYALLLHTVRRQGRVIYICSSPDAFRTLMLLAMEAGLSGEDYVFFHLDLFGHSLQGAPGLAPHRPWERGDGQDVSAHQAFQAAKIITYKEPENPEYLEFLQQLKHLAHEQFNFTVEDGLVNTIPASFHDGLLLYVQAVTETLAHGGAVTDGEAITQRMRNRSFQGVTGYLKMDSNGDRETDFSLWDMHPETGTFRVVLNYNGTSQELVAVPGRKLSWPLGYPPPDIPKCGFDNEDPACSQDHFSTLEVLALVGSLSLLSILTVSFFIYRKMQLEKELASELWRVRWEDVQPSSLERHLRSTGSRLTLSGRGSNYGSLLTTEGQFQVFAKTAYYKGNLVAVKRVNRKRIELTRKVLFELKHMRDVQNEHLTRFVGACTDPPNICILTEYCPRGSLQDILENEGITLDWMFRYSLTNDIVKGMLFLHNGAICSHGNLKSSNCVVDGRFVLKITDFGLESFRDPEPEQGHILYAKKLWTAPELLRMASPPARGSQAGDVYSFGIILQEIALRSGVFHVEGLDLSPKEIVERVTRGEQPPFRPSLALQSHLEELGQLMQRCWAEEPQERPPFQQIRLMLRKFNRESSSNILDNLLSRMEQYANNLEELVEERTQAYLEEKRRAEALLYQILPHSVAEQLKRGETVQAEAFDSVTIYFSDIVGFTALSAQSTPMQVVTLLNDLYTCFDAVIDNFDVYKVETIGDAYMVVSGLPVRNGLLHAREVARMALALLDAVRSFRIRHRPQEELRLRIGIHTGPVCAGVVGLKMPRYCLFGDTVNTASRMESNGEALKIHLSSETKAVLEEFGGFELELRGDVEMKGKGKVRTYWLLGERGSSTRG

T4 sequence (P23582 105-126 limits assumed, chain 2 of 2, one chain of several): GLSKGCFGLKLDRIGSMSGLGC

Binder | binding result [1] | binding result [2] | Kd [3] [nM] | binding result [4] | binding result [5] | Kd [6] [nM]
B1 | no binding (tested: 20 nM) | no binding (tested: 20 nM) |  |  |  | 
B2 |  |  | 0.59 | no binding (tested: 20 nM) | no binding (tested: 20 nM) | 0.096
B3 |  |  |  | no binding (tested: 20 nM) | no binding (tested: 20 nM) | 
